Results taken from US20200057058A1 (MIT, published 2020).

What was measured:
[1] = molecular target: monomeric streptavidin variant mSA2; experiment: calculated from [P]T of the mSA2 binding curve fit and film thickness; parameters: Calculated Density (density of binding sites within a cross-sectional area of the film): unit not given here
Method: To determine the density of binding proteins within a single plane of each thin film, the concentration of accessible binding sites throughout the entire film—taken directly from the binding assay curve fits (Table 4)—was multiplied by the corresponding film thickness. When accounting for differences in film thickness, the density of oligomerized rcSso7d.SA proteins capable of binding mSA2 is found to increase […] with degree of oligomerization (Table 5). This calculated density decreases, though, between the 1×SP25k and 2×SP25k thin films, indicating a lower density of accessible binding sites in the protein domains of the oligomerized rcSso7d.SA conjugate film. The total number of predicted binding sites within each thin film assuming complete accessibility should be proportional to the […] of rcSso7d. SA in the conjugate with PNIPAM. Reasonable estimates for relative values of the predicted number of sites can thus be obtained by normalizing the weight fraction of rcSso7d. SA in each conjugate by the corresponding weight fraction in 1×SP25k. Comparing these predicted relative number of binding sites to the calculated values (FIG. 6C), all oligomeric rcSso7d.SA conjugates are found to contain fewer proteins capable of binding mSA2 than predicted. It is likely that this effect results from a combination of steric blocking of binding sites by bound mSA2 molecules as well as a lack of the free volume required to incorporate mSA2 molecules into the protein nanodomains at high degrees of binding. Despite the lower than expected binding capacity of the conjugate thin films, these biosensors contain approximately […] the quantity of accessible binding sites compared to rcSso7d.SA monolayers on a volumetric basis (Table 4). Recognizing that each plane (and a monolayer) of rcSso7d.SA proteins is roughly 1-2 nm thick,⁸⁰ the studied thin films can be determined to contain approximately 100 more planes of protein than a monolayer.

[2] = molecular target: monomeric streptavidin variant mSA2; experiment: fluorescent binding assay, labeled mSA2 in PBS on thin film; quadratic curve fit
Method: (§1) The binding function of rcSso7d.SA oligomer-PNIPAM thin films was measured using fluorescently-labeled monomeric streptavidin (mSA2) and fluorescently-labeled streptavidin (SA). Details for the expression, purification, and fluorescent labeling of mSA2 are provided below. Samples were prepared by serial dilution of SA or mSA2 in PBS (pH 7.4), human urine (diluted to 50% v/v in PBS, pH 7.4), or blood serum (obtained as the supernatant by centrifuging whole blood at 1500×g for 10 minutes, then diluted to 50% v/v in PBS, pH 7.4). 0.5 μL drops of solutions containing serially diluted fluorescent mSA2 and fluorescent SA samples in PBS (pH 7.4) were gently applied to the surface of each bioconjugate thin film. Films were incubated in a sealed chamber saturated with water vapor at room temperature to prevent to prevent drying of the applied fluorescent samples. After 1 hour, films were thoroughly rinsed with water for 10 seconds (a time determined to be sufficient to remove unbound molecules from the film, see FIG. 33, dried under filtered airflow, and immediately analyzed for fluorescent signal. Fluorescence microscopy images were acquired at 4× magnification using a Cy5 filter set and exposure time of 5000 ms on an Olympus IX-81 inverted fluorescence microscope with an AxioCam HRC CCD camera. Fluorescent intensity was calculated using ImageJ software⁶⁷ by determining the average fluorescent signal in a rectangular area of the fluorescent image free of defects and occupying no less than half of the full sample application area.
Binding assays were performed by adding serially diluted solutions of fluorescently-labeled mSA2 to thin films of each studied conjugate (FIG. 6A). To maintain consistent transport properties between samples, each oligomer was conjugated to the same previously-synthesized 25 kDa PNIPAM sample. Analyte bound to thin films was quantified using fluorescence microscopy, and binding curves were fit to the collected mean fluorescent intensity (MFI) data using the following equation: […]

[3] = molecular target: monomeric streptavidin variant mSA2; experiment: fluorescent binding assay, labeled mSA2; signal three standard deviations above blank
Method: as §1
Oligomerization of rcSso7d.SA also brings about a decrease in biosensor limit of detection (LOD). […] While all thin films display improvements up to threefold in LOD over the monolayer, the trend in LOD with respect to degree of oligomerization is non-monotonic. The primary factor that is expected to affect LOD in the studied biosensors is number of binding sites, as more binding sites enable a greater number of analyte molecules to be captured and shifts analyte-receptor equilibrium in favor of binding events.

streptavidin [4] = molecular target: T1, streptavidin (UniProt P22629 37-163, limits assumed); experiment: fluorescent binding assay: Alexa Fluor 647-labeled streptavidin applied to the thin film; the sheet names the film 2xSP25k, the legend 2xSP17k
T1 construct: It was used without a stated label in the sandwich assays; also called SA
T1 sequence (P22629 37-163 limits assumed): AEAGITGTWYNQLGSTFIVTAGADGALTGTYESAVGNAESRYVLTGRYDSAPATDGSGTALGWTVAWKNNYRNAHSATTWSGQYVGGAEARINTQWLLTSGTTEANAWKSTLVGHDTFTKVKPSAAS
Method: as §1, with “Films were incubated in a sealed chamber saturated with water vapor at room temperature to prevent to prevent drying of the applied fluorescent samples.” left out

streptavidin [5] = molecular target: T1, streptavidin; experiment: sandwich assay: SA in 50% urine, biotin-HRP/TMB detection
Method: (§2) Each well was submerged in 1 mL of 1% BSA in Milli-Q water, and the 12-well plate was incubated at 37° C. for 30 minutes. The wells were rinsed twice by adding 2 mL of Milli-Q water and gently shaking the well plate at 70 rpm for 5 minutes. 1 mL of streptavidin diluted in PBS, urine, or blood serum (prepared as described in the Fluorescent Assays section) containing 0.1% BSA was then added to each well, and the well plate was shaken at 70 rpm for 4 hours at room temperature. Wells were rinsed twice with 2 mL of Milli-Q water then twice with 2 mL of 0.1% BSA in Milli-Q water by shaking at 70 rpm for 5 minutes. After rinsing, wells were submerged in 1 mL of 200 ng/mL biotin-HRP in Milli-Q water containing 0.1% BSA, and the well plate was shaken at 70 rpm for 1 hour at room temperature. Wells were then rinsed with water and 0.1% BSA as described previously. 1 mL of solution from a Pierce TMB substrate kit (Thermo Fisher Scientific) was added to each well, and the well plate was shaken vigorously at 125 rpm for 15 minutes at room temperature. 1 mL of 2M H2SO4 was added to each well, and the absorbance at 450 nm was read using a Tecan Infinite M200 PRO plate reader.
(§3) The general procedure for this proof-of-concept experiment is diagrammed in FIG. 28. Films were first exposed to SA solutions and rinsed to remove unbound analyte. Taking advantage of the strong interaction between SA and biotin, thin films were then submerged in a solution of biotinylated horseradish peroxidase (biotin-HRP). Bound SA was detected colorimetrically through the HRP-mediated oxidation of 3,3′,5,5′-tetramethylbenzidine (TMB). Attempts to perform this assay using mSA2 as the analyte were unsuccessful, even when run on an rcSso7d.SA monolayer.

streptavidin [6] = molecular target: T1, streptavidin; experiment: sandwich assay, SA in 50% blood serum, detection with biotin-HRP and TMB
Method: as §2, §3

streptavidin [7] = molecular target: T1, streptavidin; experiment: fluorescent binding curve, labeled SA in 50% urine, 4 h; quadratic fit
streptavidin [8] = molecular target: T1, streptavidin; experiment: sandwich assay: SA in 50% blood serum, biotin-HRP/TMB detection
Method: as §2, §3

[9] = molecular target: monomeric streptavidin variant mSA2; experiment: fluorescent binding curve, labeled mSA2 in 50% urine, 4 h; quadratic fit
[10] = molecular target: monomeric streptavidin variant mSA2; experiment: fluorescent binding curves, labeled mSA2 in 50% urine or 50% blood serum, 4 h
streptavidin [11] = molecular target: T1, streptavidin; experiment: fluorescent binding curve, labeled SA in 50% blood serum, 4 h; quadratic fit
[12] = molecular target: monomeric streptavidin variant mSA2; experiment: fluorescent binding curve, labeled mSA2 in 50% blood serum, 4 h; quadratic fit
streptavidin [13] = molecular target: T1, streptavidin; experiment: fluorescent binding assay, labeled SA in 50% urine on thin film, 4 h exposure
[14] = molecular target: monomeric streptavidin variant mSA2; experiment: fluorescent binding assay, labeled mSA2 in 50% urine on thin film, 4 h exposure
Method: as §1, with “After 1 hour, films were thoroughly rinsed with water for 10 seconds (a time determined to be sufficient to remove unbound molecules from the film, see FIG. 33, dried under filtered airflow, and immediately analyzed for fluorescent signal.” left out
(§4) To evaluate how the apparent size-based diffusion properties translated to biosensing capabilities, binding curves were measured using SA and mSA2 solutions in buffer. Binding curves were fit with a quadratic model that is a function of three parameters: the average MFI per binding event a, the total concentration of binding sites [P]T, and the apparent dissociation constant K_{d,app} describing the binding equilibrium between analyte and binding sites within the thin film.

streptavidin [15] = molecular target: T1, streptavidin; experiment: fluorescent binding assay, labeled SA in 50% blood serum on thin film, 4 h exposure
streptavidin [16] = molecular target: T1, streptavidin; experiment: apparent Kd (Kd,app); fluorescent binding curve, labeled SA in 50% urine, 4 h; quadratic fit
[17] = molecular target: monomeric streptavidin variant mSA2; experiment: fluorescent binding assay, labeled mSA2 in 50% blood serum on thin film, 4 h exposure
Method: as §1, with “After 1 hour, films were thoroughly rinsed with water for 10 seconds (a time determined to be sufficient to remove unbound molecules from the film, see FIG. 33, dried under filtered airflow, and immediately analyzed for fluorescent signal.” left out
as §4

[18] = molecular target: monomeric streptavidin variant mSA2; experiment: apparent Kd (Kd,app); fluorescent binding curve, labeled mSA2 in 50% urine, 4 h; quadratic fit
streptavidin [19] = molecular target: T1, streptavidin; experiment: apparent Kd (Kd,app); fluorescent binding curve, labeled SA in 50% blood serum, 4 h; quadratic fit
[20] = molecular target: monomeric streptavidin variant mSA2; experiment: apparent Kd (Kd,app); fluorescent binding curve, labeled mSA2 in 50% blood serum, 4 h; quadratic fit

B1: 1xSP25k thin film (1x rcSso7d.SA-PNIPAM conjugate, 25 kDa PNIPAM) (designed binder)
chain: MGSIHHHHHHSSGLVPRGSHMCATVKFTYQGEEKQVDISKIKIVARDGQYIDFKYDEGGGAYGYGWVSEKDAPKELLQMLEKQ
modifications: maleimide end-functionalized PNIPAM (25 kDa) on the N-terminal Cys; film lightly crosslinked with glutaraldehyde
- Calculated Density (density of binding sites within a cross-sectional area of the film) [1]: 48
- Calculated Ratio (film thickness x [P]T relative to the 1xSP25k thin film) [1]: 1
- [P]T (total concentration of accessible binding sites) [2]: 3.1 µM
- limit of detection (LOD) [3]: 290 nM

B2: 2xSP25k thin film (2x rcSso7d.SA-PNIPAM conjugate, 25 kDa PNIPAM) (designed binder)
chain: MGSSHHHHHHSSGLVPRGSHMCATVKFTYQGEEKQVDISKIKIVARDGQYIDFKYDEGGGAYGYGWVSEKDAPKELLQMLEKQGGGGSGGGGSMATVKFTYQGEEKQVDISKIKIVARDGQYIDFKYDEGGGAYGYGWVSEKDAPKELLQMLEKQGG
modifications: maleimide end-functionalized PNIPAM (25 kDa) on the N-terminal Cys; film lightly crosslinked with glutaraldehyde
notes: Two rcSso7d.SA repeats joined by a (G4S)2 linker in one chain
- Calculated Density (density of binding sites within a cross-sectional area of the film) [1]: 43
- Calculated Ratio (film thickness x [P]T relative to the 1xSP25k thin film) [1]: 0.9
- [P]T (total concentration of accessible binding sites) [2]: 3.3 µM
- limit of detection (LOD) [3]: 200 nM
- binding result (streptavidin [4]): binds

B3: 3xSP30.3k thin film (3x rcSso7d.SA-PNIPAM conjugate, PNIPAM Mn 30.3 kDa) (designed binder)
chain: MGSSHHHHHHSSGLVPRGSHMCATVKFTYQGEEKQVDISKIKIVARDGQYIDFKYDEGGGAYGYGWVSEKDAPKELLQMLEKQGGGGSGGGGSMATVKFTYQGEEKQVDISKIKIVARDGQYIDFKYDEGGGAYGYGWVSEKDAPKELLQMLEKQGGGGSGGGGSMATVKFTYQGEEKQVDISKIKIVARDGQYIDFKYDEGGGAYGYGWVSEKDAPKELLQMLEKQGG
modifications: maleimide end-functionalized PNIPAM (Mn 30.3 kDa) on the N-terminal Cys; film lightly crosslinked with glutaraldehyde
- LOD (streptavidin [5]): 28 nM
- LOD relative to rcSso7d.SA monolayer (streptavidin [6]): 2 fold
- [P]T (total concentration of binding sites) (streptavidin [7]): 0.27 nM
- LOD (streptavidin [8]): 87 nM
- [P]T (total concentration of binding sites) [9]: 16 nM
- LOD relative to rcSso7d.SA monolayer [10]: 2 orders of magnitude lower
- [P]T (total concentration of binding sites) (streptavidin [11]): 0.23 nM
- [P]T (total concentration of binding sites) [12]: 5.7 nM
- Limit of Detection (streptavidin [13]): 1100 nM
- Limit of Detection [14]: 12 nM
- Limit of Detection (streptavidin [15]): 1800 nM
- Kd (streptavidin [16]): 30 µM
- Limit of Detection [17]: 25 nM
- Kd [18]: 29 µM
- Kd (streptavidin [19]): 40 µM
- Kd [20]: 20 µM
